Assays:
Test in all cases: Radioligand binding
E348A RAMP2/CLR = target: T1, E348A RAMP2/CLR (Homo sapiens, UniProt O60895+Q16602, E348A); conditions: 125I-AM bound (span of displacement curve) normalized to WT, n = 3
T1 construct: expressed in transfected cells; host or cells: Cos7 (membranes)
Method: (§1) This was performed on membranes made from transfected Cos7 cells, essentially as described elsewhere. […] Incubations were terminated by centrifugation.
(§2) Radioligand binding data were analysed in Graphpad Prism as described for the cAMP assays.

F349A RAMP2/CLR = target: T2, F349A RAMP2/CLR (Homo sapiens, UniProt O60895+Q16602, F349A); conditions: 125I-AM bound (span of displacement curve) normalized to WT, n = 3
T2 construct: expressed in transfected cells; host or cells: Cos7 (membranes)
Method: as §1, §2

H374A RAMP1/CLR = target: T3, H374A RAMP1/CLR (Homo sapiens, UniProt O60894+Q16602, H374A); conditions: H374A CLR/RAMP1, Cos7 membranes
T3 construct: expressed in transfected cells; host or cells: Cos7 (membranes)
Method: as §1, §2

M230A RAMP2/CLR = target: T4, M230A RAMP2/CLR (Homo sapiens, UniProt O60895+Q16602, M230A); conditions: 125I-AM bound (span of displacement curve) normalized to WT, n = 3
T4 construct: expressed in transfected cells; host or cells: Cos7 (membranes)
Method: as §1, §2

N305A RAMP2/CLR = target: T5, N305A RAMP2/CLR (Homo sapiens, UniProt O60895+Q16602, N305A); conditions: 125I-AM bound (span of displacement curve) normalized to WT, n = 3
T5 construct: expressed in transfected cells; host or cells: Cos7 (membranes)
Method: as §1, §2

WT RAMP1/CLR = target: T6, WT RAMP1/CLR (Homo sapiens, UniProt O60894+Q16602); conditions: WT CLR/RAMP1, Cos7 membranes
T6 construct: expressed in transfected cells; host or cells: Cos7 (membranes)
Method: as §1, §2

V198A RAMP2/CLR = tested on: V198A RAMP2/CLR; set-up: species or system human; conditions: 125I-AM bound (span of displacement curve) normalized to WT, n = 3
Method: as §1
Radioligand binding data were analysed in Graphpad Prism as described for the cAMP assays. […] Thus for each mutant, the total specific binding relative to WT was calculated from the span values and the 95% confidence limits were calculated. This relies on the Bmax value not changing; while this is consistent with our ELISA data, we cannot rule out a contribution to […] arising from a small change in receptor expression.

T1 sequence (Q16602 23-461 E348A): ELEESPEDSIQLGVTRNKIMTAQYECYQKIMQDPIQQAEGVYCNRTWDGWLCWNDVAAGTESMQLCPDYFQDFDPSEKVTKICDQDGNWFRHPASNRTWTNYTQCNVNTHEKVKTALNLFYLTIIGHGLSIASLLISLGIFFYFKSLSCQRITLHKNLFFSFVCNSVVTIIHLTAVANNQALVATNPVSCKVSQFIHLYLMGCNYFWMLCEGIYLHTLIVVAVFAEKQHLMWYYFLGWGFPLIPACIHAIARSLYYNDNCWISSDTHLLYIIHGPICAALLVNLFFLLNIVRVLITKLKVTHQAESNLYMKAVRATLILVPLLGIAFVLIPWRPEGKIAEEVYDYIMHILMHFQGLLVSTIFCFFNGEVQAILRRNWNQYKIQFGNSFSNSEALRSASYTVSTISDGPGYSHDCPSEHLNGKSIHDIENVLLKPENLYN
T1 sequence (O60895 43-175): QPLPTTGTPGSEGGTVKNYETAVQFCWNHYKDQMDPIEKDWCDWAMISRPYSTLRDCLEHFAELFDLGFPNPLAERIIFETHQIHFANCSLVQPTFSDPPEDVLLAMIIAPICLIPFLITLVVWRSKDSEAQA
T2 sequence (Q16602 23-461 F349A): as the sequence (Q16602 23-461 E348A) above, with A326E, F327A counted along it
T2 sequence (O60895 43-175): as the sequence (O60895 43-175) above
T6 sequence (Q16602 23-461): as the sequence (Q16602 23-461 E348A) above, with A326E counted along it
T6 sequence (O60894 27-148): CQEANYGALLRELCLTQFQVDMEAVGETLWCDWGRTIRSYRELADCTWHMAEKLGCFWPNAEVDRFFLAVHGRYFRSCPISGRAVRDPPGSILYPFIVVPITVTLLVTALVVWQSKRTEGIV
T4 sequence (Q16602 23-461 M230A): as the sequence (Q16602 23-461 E348A) above, with M208A, A326E counted along it
T4 sequence (O60895 43-175): as the sequence (O60895 43-175) above
T3 sequence (Q16602 23-461 H374A): as the sequence (Q16602 23-461 E348A) above, with A326E, H352A counted along it
T3 sequence (O60894 27-148): as the sequence (O60894 27-148) above
T5 sequence (Q16602 23-461 N305A): as the sequence (Q16602 23-461 E348A) above, with N283A, A326E counted along it
T5 sequence (O60895 43-175): as the sequence (O60895 43-175) above

% Ligand bound (E348A RAMP2/CLR): 147.9 ± 2.9 % | % Ligand bound (F349A RAMP2/CLR): 132.3 ± 4.3 % | specific binding of 125I-AM (H374A RAMP1/CLR): 5243 ± 112 dpm/mg | % Ligand bound (M230A RAMP2/CLR): 109.4 ± 3.7% | % Ligand bound (N305A RAMP2/CLR): 62.7 ± 4.7 % | specific binding of 125I-AM (WT RAMP1/CLR): 78 ± 208 dpm/mg | % Ligand bound (V198A RAMP2/CLR): 116.2 ± 3.7 %
Substance: [^125I]-human (13–52) iodotyrosyl^52adrenomedullin [125I-AM]

Reference: paper PMC5609567 (Biochemical Pharmacology, 2017)
